Among the data in PMC5656893, “Regioselective para‐Carboxylation of Catechols with a Prenylated Flavin Dependent Decarboxylase” (Angewandte Chemie (International Ed. in English), 2017) are Km and kcat values, retold here.

Substrate in series [1]: O=C(O)c1ccc(O)c(O)c1
The series is described as follows: decarboxylation kinetics, purified enzyme reconstituted in vitro with prFMN. The following applies: apparent; prFMN iminium cofactor, after oxidative maturation. It counts as biochemical, Klebsiella pneumoniae.

Substrate in series [2]: O=C(O)c1ccc(O)c(O)c1
Described as above. It counts as biochemical, Enterobacter cloacae. The note with it: apparent; prFMN iminium cofactor, after oxidative maturation.

B1: KpAroY (Klebsiella pneumoniae subsp. pneumoniae MGH 78578) (protein)
chain: MTAPIQDLRDAIALLQQHDNQYLETDHPVDPNAELAGVYRHIGAGGTVKRPTRIGPAMMFNNIKGYPHSRILVGMHASRQRAALLLGCEASQLALEVGKAVKKPVAPVVVPASSAPCQEQIFLADDPDFDLRTLLPAPTNTPIDAGPFFCLGLALASDPDDASLTDVTIHRLCVQGRDELSMFLAAGRHIEVFRQKAEAAGKPLPITINMGLDPAIYIGACFEAPTTPFGYNELGVAGALRQRPVELVQGVSVPEKAIARAEIVIEGELLPGVRVREDQHTNSGHAMPEFPGYCGGANPSLPVIKVKAVTMRNNAILQTLVGPGEEHTTLAGLPTEASIWNAVEAAIPGFLQNVYAHTAGGGKFLGILQVKKRQPADEGRQGQAALLALATYSELKNIILVDEDVDIFDSDDILWAMTTRMQGDVSITTIPGIRGHQLDPSQTPEYSPSIRGNGISCKTIFDCTVPWALKSHFERAPFADVDPRPFAPEYFARLEKNQGSAK
notes: recombinant, purified from E. coli (UbiX co-expressed), reconstituted in vitro with prFMN and oxidised; UbiD family; about 495 residues
By Km is commonly meant the substrate concentration at which the rate is half of its maximum. As usually defined, the kcat is the number of substrate molecules converted per active site and unit of time at saturation. For the protein B1, in series [1], the Km stood at 96 ± 23 µM and the kcat was 4.7±0.4 s^-1 (printed as v max ^app).

B2: EcAroY (Enterobacter cloacae) (protein)
chain: MQNPINDLRSAIALLQRHPGHYIETDHPVDPNAELAGVYRHIGAGGTVKRPTRTGPAMMFNSVKGYPGSRILVGMHASRERAALLLGCVPSKLAQHVGQAVKNPVAPVVVPASQAPCQEQVFYADDPDFDLRKLLPAPTNTPIDAGPFFCLGLVLASDPEDTSLTDVTIHRLCVQERDELSMFLAAGRHIEVFRKKAEAAGKPLPVTINMGLDPAIYIGACFEAPTTPFGYNELGVAGALRQQPVELVQGVAVKEKAIARAEIIIEGELLPGVRVREDQHTNTGHAMPEFPGYCGEANPSLPVIKVKAVTMRNHAILQTLVGPGEEHTTLAGLPTEASIRNAVEEAIPGFLQNVYAHTAGGGKFLGILQVKKRQPSDEGRQGQAALIALATYSELKNIILVDEDVDIFDSDDILWAMTTRMQGDVSITTLPGIRGHQLDPSQSPDYSTSIRGNGISCKTIFDCTVPWALKARFERAPFMEVDPTPWAPELFSDKK
notes: recombinant, purified from E. coli (UbiX co-expressed), reconstituted in vitro with prFMN and oxidised; UbiD family; homohexamer; about 495 residues
B2: in series [2], the Km is 61 ± 17 µM and the kcat is 4.6±0.4 s^-1 (printed as v max ^app).
